This data set deals with the molecule itself. Put plainly: cross-linking.

B1: CorA double cysteine mutant V183C/A8C (natural protein, Thermotoga maritima)
chain: MEEKRLSCKKGLPPGTLVYTGKYREDFEIEVMNYSIEEFREFKTTDVESVLPFRDSSTPTWINITGIHRTDVVQRVGEFFGIHPLVLEDILNVHQRPKVEFFENYVFIVLKMFTYDKNLHELESEQVSLILTKNCVLMFQEKIGDVFDPVRERIRYNRGIIRKKRADYLLYSLIDALVDDYFCLLEKIDDEIDVLEEEVLERPEKETVQRTHQLKRNLVELRKTIWPLREVLSSLYRDVPPLIEKETVPYFRDVYDHTIQIADTVETFRDIVSGLLDVYLSSVSNKTNEVMKVLTIIATIFMPLTFIAGIYGMNFEYMPELRWKWGYPVVLAVMGVIAVIMVVYFKKKKWL
Turning to B1, the stoichiometry N (commonly a count of units in the complex or per binding partner) was 5.

For the origin of these results see paper PMC4752722 (Cell, 2016).
